Test results taken from US20260265379A1.

Target: BTN3A expressed at the cell surface (human), O00481
Assay: cell-based or functional assay

Chain of BTN3A expressed at the cell surface (human), O00481 (O00481 30-513): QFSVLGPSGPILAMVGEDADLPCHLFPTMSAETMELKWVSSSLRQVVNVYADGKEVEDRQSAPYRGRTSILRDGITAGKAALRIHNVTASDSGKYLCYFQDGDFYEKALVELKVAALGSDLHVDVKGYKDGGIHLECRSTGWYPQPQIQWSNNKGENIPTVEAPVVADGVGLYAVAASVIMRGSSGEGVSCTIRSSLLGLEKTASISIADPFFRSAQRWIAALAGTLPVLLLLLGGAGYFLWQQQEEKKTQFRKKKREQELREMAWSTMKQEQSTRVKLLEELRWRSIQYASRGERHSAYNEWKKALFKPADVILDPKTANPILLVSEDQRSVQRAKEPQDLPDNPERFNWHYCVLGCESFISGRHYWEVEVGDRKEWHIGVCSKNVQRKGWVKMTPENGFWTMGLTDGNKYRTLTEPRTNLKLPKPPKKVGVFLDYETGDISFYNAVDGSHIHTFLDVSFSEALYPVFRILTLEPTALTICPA

| Binder | Jurkat-Vy9Vo2 TCR MOP activation at 0.5 nM (fold-change to medium) | Jurkat-Vy9Vo2 TCR MOP activation at 5 nM (fold-change to medium) |
| --- | --- | --- |
| bsAb035 (bispecific antibody, not shown: small tags and cut ends) heavy (part 1 of 2): QVQLVQSGAEVKKPGASVKLSCKASGYIFTRYYMYWVKQRPGQGLEWIGEINPNNGGTKFNEKFKNRATLTVDKSISTAYMELSRLRSDDTAVYYCSREDDYDGTPFAMDYWGQGTLVTVSS heavy (part 2 of 2): GGGGSGGGGSGGGGSGGGGSEVQLVESGGGLVQPGGSLRLSCAASGFTFSRYWMSWVRQAPGKGLEWVANIKQDGSEKYYVDSVKGRFTISRDNAKNSLYLQMNSLRAEDTAVYYCAREGGWFGELAFDYWGQGTLVTVSSGGGGSGGGGSGGGGSGGGGSEIVLTQSPGTLSLSPGERATLSCRASQRVSSSYLAWYQQKPGQAPRLLIYDASSRATGIPDRFSGSGSGTDFTLTISRLEPEDFAVYYCQQYGSLPWTFGQGTKVEIK heavy: QVQLVQSGAEVKKPGASVKLSCKASGYIFTRYYMYWVKQRPGQGLEWIGEINPNNGGTKFNEKFKNRATLTVDKSISTAYMELSRLRSDDTAVYYCSREDDYDGTPFAMDYWGQGTLVTVSS light: not shown | 14.1 | 11.2 |
| bsAb040 (bispecific antibody, not shown: small tags and cut ends) heavy (part 1 of 2): QVQLVQSGAEVKKPGASVKLSCKASGYIFTRYYMYWVKQRPGQGLEWIGEINPNNGGTKFNEKFKNRATLTVDKSISTAYMELSRLRSDDTAVYYCSREDDYDGTPFAMDYWGQGTLVTVSS heavy (part 2 of 2): GGGGSGGGGSGGGGSGGGGSEIVLTQSPGTLSLSPGERATLSCRASQRVSSSYLAWYQQKPGQAPRLLIYDASSRATGIPDRFSGSGSGTDFTLTISRLEPEDFAVYYCQQYGSLPWTFGQGTKVEIKGGGGSGGGGSGGGGSGGGGSEVQLVESGGGLVQPGGSLRLSCAASGFTFSRYWMSWVRQAPGKGLEWVANIKQDGSEKYYVDSVKGRFTISRDNAKNSLYLQMNSLRAEDTAVYYCAREGGWFGELAFDYWGQGTLVTVSS heavy: QVQLVQSGAEVKKPGASVKLSCKASGYIFTRYYMYWVKQRPGQGLEWIGEINPNNGGTKFNEKFKNRATLTVDKSISTAYMELSRLRSDDTAVYYCSREDDYDGTPFAMDYWGQGTLVTVSS light: not shown | 10.4 | 8.8 |
| bsAb048 (bispecific antibody, not shown: small tags and cut ends) heavy 1: EIVLTQSPGTLSLSPGERATLSCRASQRVSSSYLAWYQQKPGQAPRLLIYDASSRATGIPDRFSGSGSGTDFTLTISRLEPEDFAVYYCQQYGSLPWTFGQGTKVEIKGGGGSGGGGSGGGGSGGGGSEVQLVESGGGLVQPGGSLRLSCAASGFTFSRYWMSWVRQAPGKGLEWVANIKQDGSEKYYVDSVKGRFTISRDNAKNSLYLQMNSLRAEDTAVYYCAREGGWFGELAFDYWGQGTLVTVSSGGGGSGGGGSGGGGSGGGGSQVQLVQSGAEVKKPGASVKLSCKASGYIFTRYYMYWVKQRPGQGLEWIGEINPNNGGTKFNEKFKNRATLTVDKSISTAYMELSRLRSDDTAVYYCSREDDYDGTPFAMDYWGQGTLVTVSS heavy 2: QVQLVQSGAEVKKPGASVKLSCKASGYIFTRYYMYWVKQRPGQGLEWIGEINPNNGGTKFNEKFKNRATLTVDKSISTAYMELSRLRSDDTAVYYCSREDDYDGTPFAMDYWGQGTLVTVSS light: not shown | 8.2 | 7.9 |
| bsAb050 (bispecific antibody, not shown: small tags and cut ends) heavy 1: EVQLVESGGGLVQPGGSLRLSCAASGFTFSRYWMSWVRQAPGKGLEWVANIKQDGSEKYYVDSVKGRFTISRDNAKNSLYLQMNSLRAEDTAVYYCAREGGWFGELAFDYWGQGTLVTVSSGGGGSGGGGSGGGGSGGGGSEIVLTQSPGTLSLSPGERATLSCRASQRVSSSYLAWYQQKPGQAPRLLIYDASSRATGIPDRFSGSGSGTDFTLTISRLEPEDFAVYYCQQYGSLPWTFGQGTKVEIKGGGGSGGGGSGGGGSGGGGSQVQLVQSGAEVKKPGASVKLSCKASGYIFTRYYMYWVKQRPGQGLEWIGEINPNNGGTKFNEKFKNRATLTVDKSISTAYMELSRLRSDDTAVYYCSREDDYDGTPFAMDYWGQGTLVTVSS heavy 2: QVQLVQSGAEVKKPGASVKLSCKASGYIFTRYYMYWVKQRPGQGLEWIGEINPNNGGTKFNEKFKNRATLTVDKSISTAYMELSRLRSDDTAVYYCSREDDYDGTPFAMDYWGQGTLVTVSS light: not shown | 10.1 | 9.3 |
| bsAb051 (bispecific antibody, not shown: small tags and cut ends; a dimerising Fc or GST) heavy (part 1 of 2): QVQLVQSGAEVKKPGASVKLSCKASGYIFTRYYMYWVKQRPGQGLEWIGEINPNNGGTKFNEKFKNRATLTVDKSISTAYMELSRLRSDDTAVYYCSREDDYDGTPFAMDYWGQGTLVTVSS heavy (part 2 of 2): GGGGSGGGGSGGGGSGGGGSEVQLVESGGGLVQPGGSLRLSCAASGFTFSRYWMSWVRQAPGKGLEWVANIKQDGSEKYYVDSVKGRFTISRDNAKNSLYLQMNSLRAEDTAVYYCAREGGWFGELAFDYWGQGTLVTVSSGGGGSGGGGSGGGGSGGGGSEIVLTQSPGTLSLSPGERATLSCRASQRVSSSYLAWYQQKPGQAPRLLIYDASSRATGIPDRFSGSGSGTDFTLTISRLEPEDFAVYYCQQYGSLPWTFGQGTKVEIK heavy: GGGGSGGGGSGGGGSGGGGSEVQLVESGGGLVQPGGSLRLSCAASGFTFSRYWMSWVRQAPGKGLEWVANIKQDGSEKYYVDSVKGRFTISRDNAKNSLYLQMNSLRAEDTAVYYCAREGGWFGELAFDYWGQGTLVTVSSGGGGSGGGGSGGGGSGGGGSEIVLTQSPGTLSLSPGERATLSCRASQRVSSSYLAWYQQKPGQAPRLLIYDASSRATGIPDRFSGSGSGTDFTLTISRLEPEDFAVYYCQQYGSLPWTFGQGTKVEIK light: not shown | 1.5 | 2.3 |
| bsAb055 (bispecific antibody, not shown: a dimerising Fc or GST; small tags and cut ends) heavy 1: GGGGSGGGGSGGGGSGGGGSEVQLVESGGGLVQPGGSLRLSCAASGFTFSRYWMSWVRQAPGKGLEWVANIKQDGSEKYYVDSVKGRFTISRDNAKNSLYLQMNSLRAEDTAVYYCAREGGWFGELAFDYWGQGTLVTVSSGGGGSGGGGSGGGGSGGGGSEIVLTQSPGTLSLSPGERATLSCRASQRVSSSYLAWYQQKPGQAPRLLIYDASSRATGIPDRFSGSGSGTDFTLTISRLEPEDFAVYYCQQYGSLPWTFGQGTKVEIK heavy 2: QVQLVQSGAEVKKPGASVKLSCKASGYIFTRYYMYWVKQRPGQGLEWIGEINPNNGGTKFNEKFKNRATLTVDKSISTAYMELSRLRSDDTAVYYCSREDDYDGTPFAMDYWGQGTLVTVSS light: not shown | 2.9 | 11.8 |
| bsAb005 (bispecific antibody) heavy: QVQLVQSGAEVKKPGASVKLSCKASGYIFTRYYMYWVKQRPGQGLEWIGEINPNNGGTKFNEKFKNRATLTVDKSISTAYMELSRLRSDDTAVYYCSREDDYDGTPFAMDYWGQGTLVTVSSASTKGPSVFPLAPSSKSTSGGTAALGCLVKDYFPEPVTVSWNSGALTSGVHTFPAVLQSSGLYSLSSVVTVPSSSLGTQTYICNVNHKPSNTKVDKRVEPKSCDKTHTCPPCPAPEFEGGPSVFLFPPKPKDTLMISRTPEVTCVVVDVSHEDPEVKFNWYVDGVEVHNAKTKPREEQYNSTYRVVSVLTVLHQDWLNGKEYKCKVSNKALPASIEKTISKAKGQPREPQVYTLPPSREEMTKNQVSLTCLVKGFYPSDIAVEWESNGQPENNYKTTPPVLDSDGSFFLYSKLTVDKSRWQQGNVFSCSVMHEALHNHYTQKSLSLSPGGGGGSGGGGSGGGGSGGGGSEIVLTQSPATLSLSPGERATLSCRASKGVSTSGYSYLHWYQQKPGQAPRLLIYLASYLESGVPARFSGSGSGTDFTLTISSLEPEDFAVYYCQHSRDLPLTFGGGTKVEIKGGGGSGGGGSGGGGSGGGGSQVQLVQSGVEVKKPGASVKVSCKASGYTFTNYYMYWVRQAPGQGLEWMGGINPSNGGTNFNEKFKNRVTLTTDSSTTTAYMELKSLQFDDTAVYYCARRDYRFDMGFDYWGQGTTVTVSS light: not shown | 6 | 4.2 |
| bsAb020 (bispecific antibody) heavy: DIQMTQSPSSLSASVGDRVTITCHASQNINVWLSWYQQKPGKAPKLLIYKASNLHTGVPSRFTGSGSGTDFTFTISSLQPEDIATYYCQQGQTYPYTFGQGTKLEIKGGGGSGGGGSGGGGSGGGGSQVQLVQSGAEVKKPGASVKLSCKASGYIFTRYYMYWVKQRPGQGLEWIGEINPNNGGTKFNEKFKNRATLTVDKSISTAYMELSRLRSDDTAVYYCSREDDYDGTPFAMDYWGQGTLVTVSSGGGGSGGGGSGGGGSGGGGSEVQLVESGGGLVQPGGSLRLSCAASGFTFSRYWMSWVRQAPGKGLEWVANIKQDGSEKYYVDSVKGRFTISRDNAKNSLYLQMNSLRAEDTAVYYCAREGGWFGELAFDYWGQGTLVTVSSASTKGPSVFPLAPSSKSTSGGTAALGCLVKDYFPEPVTVSWNSGALTSGVHTFPAVLQSSGLYSLSSVVTVPSSSLGTQTYICNVNHKPSNTKVDKRVEPKSCDKTHTCPPCPAPEFEGGPSVFLFPPKPKDTLMISRTPEVTCVVVDVSHEDPEVKFNWYVDGVEVHNAKTKPREEQYNSTYRVVSVLTVLHQDWLNGKEYKCKVSNKALPASIEKTISKAKGQPREPQVYTLPPSREEMTKNQVSLTCLVKGFYPSDIAVEWESNGQPENNYKTTPPVLDSDGSFFLYSKLTVDKSRWQQGNVFSCSVMHEALHNHYTQKSLSLSPG light: EIVLTQSPGTLSLSPGERATLSCRASQRVSSSYLAWYQQKPGQAPRLLIYDASSRATGIPDRFSGSGSGTDFTLTISRLEPEDFAVYYCQQYGSLPWTFGQGTKVEIKRTVAAPSVFIFPPSDEQLKSGTASVVCLLNNFYPREAKVQWKVDNALQSGNSQESVTEQDSKDSTYSLSSTLTLSKADYEKHKVYACEVTHQGLSSPVTKSFNRGEC | 1.1 | 1 |
| bsAb024 (bispecific antibody) heavy: QVQLVQSGAEVKKPGASVKLSCKASGYIFTRYYMYWVKQRPGQGLEWIGEINPNNGGTKFNEKFKNRATLTVDKSISTAYMELSRLRSDDTAVYYCSREDDYDGTPFAMDYWGQGTLVTVSSGGGGSGGGGSGGGGSGGGGSDIQMTQSPSSLSASVGDRVTITCHASQNINVWLSWYQQKPGKAPKLLIYKASNLHTGVPSRFTGSGSGTDFTFTISSLQPEDIATYYCQQGQTYPYTFGQGTKLEIKGGGGSGGGGSGGGGSGGGGSEVQLVESGGGLVQPGGSLRLSCAASGFTFSRYWMSWVRQAPGKGLEWVANIKQDGSEKYYVDSVKGRFTISRDNAKNSLYLQMNSLRAEDTAVYYCAREGGWFGELAFDYWGQGTLVTVSSASTKGPSVFPLAPSSKSTSGGTAALGCLVKDYFPEPVTVSWNSGALTSGVHTFPAVLQSSGLYSLSSVVTVPSSSLGTQTYICNVNHKPSNTKVDKRVEPKSCDKTHTCPPCPAPEFEGGPSVFLFPPKPKDTLMISRTPEVTCVVVDVSHEDPEVKFNWYVDGVEVHNAKTKPREEQYNSTYRVVSVLTVLHQDWLNGKEYKCKVSNKALPASIEKTISKAKGQPREPQVYTLPPSREEMTKNQVSLTCLVKGFYPSDIAVEWESNGQPENNYKTTPPVLDSDGSFFLYSKLTVDKSRWQQGNVFSCSVMHEALHNHYTQKSLSLSPG light: EIVLTQSPGTLSLSPGERATLSCRASQRVSSSYLAWYQQKPGQAPRLLIYDASSRATGIPDRFSGSGSGTDFTLTISRLEPEDFAVYYCQQYGSLPWTFGQGTKVEIKRTVAAPSVFIFPPSDEQLKSGTASVVCLLNNFYPREAKVQWKVDNALQSGNSQESVTEQDSKDSTYSLSSTLTLSKADYEKHKVYACEVTHQGLSSPVTKSFNRGEC | 1 | 1 |
